From patent US20230295308A1, “ANTAGONISTIC BIPARATOPIC ANTIBODIES THAT SPECIFICALLY BIND FIBROBLAST GROWTH FACTOR RECEPTOR 2 AND METHODS OF USING SAME” (The Broad Institute, Inc., priority 2020, published 2023)

Key:
[1] = test system: BaF3 cells expressing wild-type FGFR2IIIb; experiment: ligand-induced (FGF10) growth of BaF3 cells expressing FGFR2IIIb (FIG. 8); assay type: cell-based
Method: FIG. 8 is a schematic (described at FIG. 7A) and a graph showing the growth of BaF3 cells expressing FGFR2IIIb when treated with FGF10. Anti-FGFR2 antibodies blocked ligand-dependent stimulation of BaF3 cells expressing wild-type FGFR2b. FGFR2b is an isoform of FGFR2 that is predominantly expressed in cholangiocarcinoma.
Antibodies A-F were tested to determine whether they could inhibit the ligand-induced growth of BaF3 cells expressing FGFR2IIIb. Antibodies C, D, and E, which bind FGFR2 Ig-2 and Ig-3, were effective in blocking ligand-induced growth of BaF3 cells expressing wild-type FGFR2IIIb (FIG. 8). The effects of antibodies A-F were then tested on BaF3 cells expressing FGFR2-PHDGH fusions. […] Antibody F inhibited the FGFR2-PHDGH activating fusion in BaF3 cells (FIG. 9).

[2] = test system: cells stably overexpressing FGFR2 (FGFR2IIIb); experiment: growth of cells stably overexpressing FGFR2 (FGFR2IIIb) (FIG. 16F left); assay type: cell-based
Text: FIG. 16A-16F provide schematic illustrations, blots and graphs related to the development of a NANOBIT® assay to measure FGFR2 dimerization. Such an assay is used to screen biparatopic screening for their ability to disrupt FGFR2 dimerization. […] The protein interactions bring the subunits into close proximity to form a functional enzyme that generates a bright, luminescent signal. (FIG. 16B). […] FIG. 16E presents a graph of the results of the NANOBIT® assay using NANOBIT® constructs with or without FGF10 ligand. […] As shown in the graph on the left side of FIG. 16F, certain of the antibodies A-F inhibited the growth of BaF3 cells stably overexpressing FGFR2 (FGFR2IIIb). Antibody D was used in the NANOBIT® assay (graph on the right of FIG. 16F). In the rightmost graph in FIG. 16F, the fold luminescence resulting from FGFR2 WT (wild type) in the assay is represented by the left bar in each set of three bars; the fold luminescence resulting from FGFR2+FGF10 ligand in the assay is represented by the middle bar in each set of three bars; and the fold luminescence resulting from +/−FGF10 ligand difference in the assay is represented by the right bar in each set of three bars shown in FIG. 16F.
Different expression constructs (e.g., up to eight) were made encoding LgBiT and SmBiT fused to the N and C termini of protein:protein pairs. […]

B1: 2B 1.3.12 (antibody, V domains shown)
VH: EVQLVESGGGLVQPGGSLRLSCAASGFPFTSTGISWVRQAPGKGLEWVGRTHLGDGSTNYADSVKGRFTISADTSKNTAYLQMNSLRAEDTAVYYCARTYGIYDTYDMYTEYVMDYWGQGTLVTVSS
VL: DIQMTQSPSSLSASVGDRVTITCRASQDVDTSLAWYKQKPGKAPKLLIYSASFLYSGVPSRFSGSGSGTDFTLTISSLQPEDFATYYCQQSTGHPQTFGQGTKVEIK
notes: the duobody scheme implies IgG1 with K409R or F405L; also called Antibody D; GE
- blocking ligand-induced growth of BaF3 cells expressing wild-type FGFR2IIIb [1]: effective
- growth inhibition of cells stably overexpressing FGFR2 (FGFR2IIIb) [2]: most pronounced effect
